In the nanobody polyreactivity screen of Harvey et al. (2022):

assay: yeast display, Sf9 membrane polyspecificity reagent, FACS + sequencing; frameworks hold sequencing errors
Procedure, shortened: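 Synthetic nanobody libraries on Saccharomyces cerevisiae BJ5465 were galactose-induced for 36–48 hours, stained 1 hour at 4 °C with 10% biotinylated, detergent-solubilized Sf9 membrane reagent and enriched on streptavidin microbeads. FACS then separated cells into low and high (top ~1%) gates by anti-HA (expression) and streptavidin (reagent binding) fluorescence. Genes were colony-PCR amplified, MiSeq 2 × 250 sequenced and CDR-length filtered. A clone's polyreactivity label is that of its gate of origin.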

| Sequence | polyreactivity (PSR sort gate) |
| --- | --- |
| QVQLVESGGGLVQAGGSLRLSCAASGFTFVKNAMGWYRQAPGKERELVAALSSRGGSTYYADSVKGRFTISRDNAKNTVYLQMNSLKPEDTAVYYCATERERTMGYWGQGTQVTVSS | high polyreactivity |
| QVQLVESGGGLVQAGGSLRLSCAASGRTFWVYAMGWYRQATGKERELVATISKSAGITSYADSVKGRFTFSRDNAKNTVYLQMNSLKPEDTAVFYCAADKSYRRVYYWGQGTQVTVSS | low polyreactivity |
| QVQLVESGGGLGQAGGSLRLSCAASGRIFPKYVMGWYRQAPGKERELVAAIDKSADRTYYADSVKGRFTISRDNAKNTVYLQMNSLKPEDTAVYYCATAGYRLLDYWGQGTQVTVSS | high polyreactivity |
| QVQLVESGGGLVQAGGSLRLSCAASGRTYPYYAMGWYRQAPGKEREVVAAITYRGGSTSYADSVKGRFTISRDNAKNTVDLQMNSLKPEDTAVYYCAARTWNRRSPYDYWGQGTQVTVSS | high polyreactivity |
| QVQLVESGGGLVQAGGSLRLSCAASARNFYANVMGWYRQAPGKEREFVAAIRWSGGRTYYADSVKGRFTISRDNAKNTVYLQMNSLKPEDTAVYYCAADPWDYISYYIYDYWGQGTQVTVSS | low polyreactivity |
| QVQLVESGGGLVQAGGSLRLSCAASGSIFGLYAMGWYRQAPGKETELVAAINWNGGDTYYADSVKGRFTISRDNAKNPVYLQMNSLKPEDTAVYYCAAEQYRYGIRRRHYDYWGQGTQVTVSS | low polyreactivity |
| QVQLVESGGGLVQPGGTLRLTCAGSGSILTGNAMRWYRQAPGKERELVAAITSGGSTYYADSVKGRFTISRDNAKNTVYLQMNSLNQADSAGYYCAASRWRPLERGTTWLHDYWGQGTQVTVSS | low polyreactivity |
| QVQLVESGGGLVHAGGSLRLSCAASGSTFYYNAMGWYRQAPGKERELVAAITKSGDDTYYADSEKGRFTISRDNATNTVYLQMNSLKPEDTAVSYCAAYLSWYDYWGQGTQVTVSS | low polyreactivity |
| QVQLQESGGGLVLAGGSLRLSCAASGNIFVYSYMGWYRQAPGKEREFVAAIGAGSTTYYADSVSRFTISRDNAKNTVYLQMNSLKPEDTAVYYCNAEITVNDDDYWGQGTQVTVSS | low polyreactivity |
| QVQLVESGGGLVQAGGSLRLSCAASGSTFQWYTMGWYRQAPGKERELVAAITWSGASTYYADSVKGRFTISRDNAKNTVYLQMNSLKPDYTAVYYCAADWRRGSGFYYWGQGTQVTVSS | high polyreactivity |
| QVQLVESGGGLVQAGGSLRLSCAASGRIFYVYAMGWYRQAPGKERELVAAITSGGRTDYADSVKGRFTISRDNAKNTVYLQMNSLKPEDTAVYYCAVRGSYRGWYDYWGQGTQVTVSS | high polyreactivity |
| QVQLVESGGGLVQAGGSLRLSCAASGSTFSYYTMGWYRQAPGKERELVADIDSGDDTYYADSVKGRFTISRDNAKNTVYLQMNSLKPEDTAVYYCATEFNRPHFTVRVRFKYYYWGQGTQVTVSS | low polyreactivity |
| QVQLVESGGGLVQAGGSLGLSCAASGRTFGFYAMGWYRQATGKQRELVAAITSTGGSTYYADSVKGRFTISRDNAKNTVYLQMNSLKPEDNAVYYCAADSGTKRYYYWGQGTPVTVSS | high polyreactivity |
| QVQLVESGGGLVQAGGSLPLSCAASGITLYGYAMGWNRQAPGNERELVPAISRSGSSTYYADSVKGRFTISRDNAKNTVYLQMNILKPEDTAVYYCNVYSGRYWESHKFDSWGQGTQVTVSS | high polyreactivity |
| QVQLVESGGGLVQAGGSLRLSCAASGRIFAVNAMGWYRQAPGKERELVAAINGGGSTNYADSVKGRFTISRDNAKNTVYFQMNSLKPEDTAVYYCAADVGWRSQTRGYYWGQGTQVTVSS | high polyreactivity |
| QVQLVESGGGLVQAGGSLRLSCAASGSIFRVYAMGWYRQAPGKERELVASMSSDGSTYYADSVKGRFTISRDNAKNTVYLQMNSLKPEDTAVYYEYDWGQGTQVTVSS | low polyreactivity |
| QVQLVQSAGGLVQAGGSLRLSCAASGSILSINGMGSYRQAPGKERELVATIDGSDGSTFYADSVKGRLTISRDNAKNTVYFQMNSLKPEDTAVYYCAAENLWQTKEYDYWGLGTQVTVSS | low polyreactivity |
| QVQLVESGGGLVQAGGSLRLSCAASGVTFDAYVMGWYRQAPRKERELVAGIYSGGSTYYADSVKGRFTISRDNAKNTVYLQMNSLKPEDTAVYYCARENYRFAHEPPVSRQIPYDYWGQGTQVTVSS | low polyreactivity |
| QVQIVESGGGLVQAGGSLRLSCAASGRTFRTYAMGWSRPAPGKEREMVAAIRSNAGSTYYADSVKGRFTISRDNAKNTVYLQMHSLKPEDTAVYYCAKSYRSSRRYNYWGQGTQVTVSS | high polyreactivity |
| QVQLVESGGGLVQAGGSLRLSCAASGSIFFSYAMGWYRQAPGKERELVAGINWSGGSTYADSVKGRFTISRDNAKNPVYLQMNSLTPEDTAVYYCAAKYYSERSRYHYWGQGTQVTVSS | low polyreactivity |
| QVQLVESGGGLVQAGGSLRLSCAASGRTLARNAMGWYRQAPGKERELVASINGRTTRTYYADSVKGRFTISRDNAKNTVYLQMNSLKPADTAVYYCAAAVRYRKYNYWGQGTQVTVSS | high polyreactivity |

| Sequence | polyreactivity (PSR sort gate) |
| --- | --- |
| QDQLVESGGGLVQAGGSLRLICAASGITFLVNAMGWYRQAPGKERELVAGITSGDSTNYADSVKGRFTISRDNAKNTVYLQMNSLKPEDTAVYYCATVLYVGSGGGGILWDDDYWGQGTQVTVSS | low polyreactivity |
| QVQLVESGGGLVQAGGSLRLSCAASGSTFSLYAMGWYRQAPGKERELVAAINSGTSTYYADSVKGRFTISRDNAKNTVYLQMNSLKPEDTAVYYCAADGYPLQLYNYWGQGTQVTVSS | low polyreactivity |
| QVQLVESGGGLVQAGGSLRLSCAASGRTFRKYAMGWYRQAPGKERELVAAINRGGTTKYADSVKGRFTISRDNAKNTVYLEMNSLKPEDTAVYYCAVDRQRAGYPKQYDSWGQGTQVTVSS | low polyreactivity |
| QVQLVESGGGLVQAGGRLRLSCAASGRIFSDYAMGWYRQAPGKERELVAVITRGGDNTHYADSVKGRFSISRDNAKNTVYLQMNSLKAEDTAVYYCAAGFVYFRLRRYFWRDYCGQGTQVTVSS | low polyreactivity |
| QVQLVESGGGLVQAGGSLRLSCAASGRTFSSYAMGGYRKAPGKERELVAAISKRGVRTSYADSVKGRFTISRDNAKNTVYLQMNRLKPEDTAVYYCNATLGRTTAVFKYYWGQGTQVTVSS | high polyreactivity |
| QVQLVESGGGLVQAGGSLRLSCAASGRTLARNAMGWDRQAPGKERELVASINGRTTRTYYADSVKGRFTISRDNAKNTVYLQMNSLKPEDTAVYYCAADPPGYVYGKRYYWGQGTQVTVSS | high polyreactivity |
| QVQLVESGGGLVQAGGSLRLSCAASGRIFGSYAMGWYIQAPGTERELVAAINRRGGSTFYADSVKGRFTISRDNAKNSVYLQMNSLKPEDTAVYYCARRGYRQSGDYWGQGTQVTLSS | low polyreactivity |
| QVQLVESGGGLVQAGGSLRLSCAASGRTFVSNALGWYRQAPGKERELVAAISSSGGSTYYADSVKGRFTISRDNAKNTVYLQMNSLKPEDPAVYYGATYPLYSKYRYDHWGQGTQVTVSS | high polyreactivity |
| QVQLVESGGGLVQAGGSLRLSCAASGSIFPVYAMGWYRQAPGKERELVAAINSSGGTTYYADSVKGRFTISRDNAKNTVYLQMNSLKPEDTAVYYCAAEISTASYFAKTYDYWGQGTQVTVSS | low polyreactivity |
| QFQLVESGGGFVQAGGSLRLSCAASGRIFYRYAMGCYSQAPGKERELVAAITWRGGSTYYADSVKGRFTISRDNANNTVYLQMNSLKPEDTAVYYCAAAAYGVPWRSYLGVFKSHMDYWGQGTQVTVSS | high polyreactivity |
| QVQLVESGGGLVQAGGSLRLSSAASGITFFHYAMGWYRQEPGKERELVATISWRAGSTYADSVKGRFTISRDNAKKTVYLQMNSLKPEDTAVYYCNAVWTYHSGSGGYLFDYWGLGTQVTVSS | low polyreactivity |
| QVQLVESCGGLIQAGGSLRLSCAASGSTFPYYAMGWYRQAPGKEREFVAAIRFSGSSTYYADSVKGRFTISRDNAMNTVFLQMNRLKPEDTAVYYCATDYWLPSYSYDYWGQGTQVTVSS | low polyreactivity |
| QVQLVESGGGLVQAGGSLRLSCAASGRTFSPNAMGWYRQAPGKERELVASITAIGSRTYYADSVKGRFTISRDKAKNTVYLQMNSLKPEDTAVYYCAKDDELYGTKMYSWGQGTQVTVSS | low polyreactivity |
| QVQLVESGGGLVQAGGSLRLSCAASGIIFSGYAMGWYRQAPGKERELVAAISSRGGGTYYADSVKGRFTISRDNAKNTVYLQMNSLKPEDTAVYYCNRVAFTYNYWGQGTQVTVSS | high polyreactivity |
| QVQLVESGRGLVQAGGSLRLSCAASGIIFGSYAMGWYRQAPGKEMELVAAISRGTSTYYADSVKGRFTISRDNAKITVYLQMNSLNPEDTAVYYCAATRQEYGPHSRFVYVNYYYWGQGTQVTVSS | low polyreactivity |
| QVQLVESGGGLVQAGGSLRLSCAASGRIFGYNAMGWYRQAPGKERELVAAISDDGSTNYADSVKGRFTISRDNAKNTVYLQMNSLKPEDTAVYYCNADITFYTWGWYYIRYEYWGQGTQVTVSS | low polyreactivity |
| QDQHVESGGGLVQAGGSLRLSCAASGSTFPTNAMGWYRQAPGKERELVADITIRGGGTSYADSVKGRFTISRDNAKNTVYLQMNSLKPEDTEVYYCARSKSTELKRLLYDSWGQGTQVTVSS | low polyreactivity |
| QVQHVESGGGLVQAGGSLRLSCAASGRTFAWYAMGRYRQAPGKERELVAAISSGGSTYYADSVKGRFTISRDNAKNTVYLQMNSLKPEDTAVYYCAAEWHYIYAYDYWGQGTQVTVSS | low polyreactivity |
| QVQLVESGGGLVQAGGSLRLSCAASGFTFYTNAMGWYRQAPGKERELVAAISKRGASTYYADSVKGRFTISRDNAKNTFYLQMYSLKPEDTAVYYCAASSRTHGSYYYWGQGTQVTVSS | high polyreactivity |
| QVQLVESGGGLVQAGGSLRLRCAASGIIFYRYAMGWYRQAPGKERELVAAINTSGGRTYYADSVKGRFTISRDNAKNTVYLQMNSLKPEDTAVYYCAAYYSPVGFQYDYWGQGTQVTVSS | high polyreactivity |
